Consider one molecule from patent CN111153994A (WUHAN ABEX BIOTECHNOLOGY CO LTD, dated 2020).

This experiment has as its target T1, 人TNFα蛋白 (人肿瘤坏死因子) (human, UniProt P01375 77-233).
T1 construct: also called human TNFα
The experiment in a line: ELISA: human TNFα coated on the plate, serially diluted FC9 as primary antibody, HRP goat anti-human IgG-Fc as secondary. A general note: An ELISA detects its analyte on a solid surface through an enzyme-linked reagent.

As a reminder, the EC50 is the concentration giving half of the maximal effect.

T1 sequence (P01375 77-233 limits assumed): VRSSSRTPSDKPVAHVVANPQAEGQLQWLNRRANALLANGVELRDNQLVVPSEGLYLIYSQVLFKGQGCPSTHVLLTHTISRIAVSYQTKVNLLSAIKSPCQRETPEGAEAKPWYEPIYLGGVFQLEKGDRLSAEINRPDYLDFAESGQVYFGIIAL

B1: FC9抗体 (针对人肿瘤坏死因子的人源单克隆抗体) (antibody, human IgG1, kappa, V domains shown)
VH: QLVQSGAEVKKPGASVKVSCKASGYTFTSYYMHWVRQAPGQGLEWMGIINPSGGSTSYAQKFQGRVTMTRDTSTSTVYMELSSLRSEDTAVYYCASFDYWGQGTLVTVSS
VL: EIVLTQSPGTLSLSPGERATLSCRTSQSVSSSYLAWYQQKPGQAPRLLIYGASSRATGIPDRFSGSGSGTDFTLTISRLEPEDFAVYFCQQFGTSSITFGQGTRLEIKR
notes: Point mutant of FC0 in an aggregation-prone region of the heavy chain; Expressed in 293F cells from pVitro2-neo-mcs, purified on Protein A and detected with anti-human IgG-Fc; also called FC9 antibody
Take B1: the EC50 is roughly 0.4 nM.
